Laboratory results published in the domain aggregation screens of Martell et al. (2025).

experiment: soluble fraction after stress (log2 fold change); higher = more stays soluble; pooled small domains, quantitative proteomics; conditions: stress: 50 degC
How it was run: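 The stress applied to every library was 50°C. These custom libraries of small protein domains were pooled and measured at high throughput with quantitative proteomics as the read-out. Aggregation propensity is expressed as the base-two logarithm of the fold change in how much of each protein remains soluble. The higher the value, the more of that protein stays in solution.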

| Sequence | soluble fraction (log2) |
| --- | --- |
| HMEDNLMIVVQVNGKKRSEIKVSIDASEDQIKQTALAEPNVQKFVEGHTIRKMILVPSKLLNIVV | -0.0375 |
| HMKHYIDFIAEQLKTLTAIPSPSGYTKNATDYLMKLLQDMGYEPKLSRKGNVFVTLGGDGEPLVLAAHVD | -0.114 |
| HMKPLRPVHLEIQTHRLSPVGILRSSFRQAGKVMHSNHGRITGLNLEQLKLIQAAFAGEALPK | -0.0219 |
| HMTIHVMEIKSLLPIKILDESQHLVQSFSSKNPTSYNYRLIFSDKSKLENIKKTINENKDVESIEIRYA | -0.816 |
| HMPVSLHEQIQQARIRAEQNVEGISLLLQVNPKYYEQIEAGDVIPDQDLLKRISSLFGWNYHEMLHREKSS | -0.239 |
| HMGFDTSMNKYTIDDLLKLLELGSNPSQAEIVNKITNFNTIFVDNSGVIQFLNNIQDKLLDNFK | -0.396 |
| HMKTFSFEILADTVKKQRKAKGMTQAELSEATGINRSMIGQMENMTFKPSIEQLEALSQALDFNVIDLYTE | -0.196 |
| HMSGEPVKSTLPGNVFKILVAVGDSVKKGQRMFVLEAMKMEIDVNAPKDGLVTSIEVQQGQTVANGQILAK | 0.0741 |
| HMKITAPLPGTITEIKVKVGDTVKNGDTVVVLEAMKMQNNIEAESNGTVTAIFVNKGDTVMEGDALMTI | 0.14 |
| HMPLLSPRQLDVLSLAAGGLSDAQIAGRLVLSESTVRVHFHHIIEKLGVTDRAGAIAWYEQSRS | -1.03 |
| HMSFPQVELNTNKGRIVLELNSEKAPKTVANFLEYVRDGFYDGVIFHRVIDGFMIQGGGFDENFKEKA | -0.229 |
| HMSPIKAGDLVKITGTKYYRGQTIPSWVKAKNWFVHSVSGDRAVINKSEDGKNAIMSPVKVSNLALVT | -0.0334 |
| HMSTGGDLTQRERELLGLMARGLSNQEISKRLTIAMPTVKFHVTNILAKLHADNRTEAVLVALKNKLVAL | -0.748 |
| HMFRSTLEELKHQISGFLKANQSQEFTAQNLADGLRMTSIAEYKRVVNAMDALVRDGELTFDAGKYQYNPN | -0.279 |
| HMDIESREAWVDASGMGVRLDRWLTQLAPEFSRNHLQSLIERGAVRVDGQPALVASRKLRIGQQVAVSLIP | -0.868 |
| HMLRDMIIQSYRYYTDKERNPRQVWNRMEADAFWEIIRDYEGYNGDGYVHTKIIPEMEALTVIEMDN | -1.62 |
| HMPLLELPDDFYPAWKPKTIYVQGQRIMLDGVAFEAKWWTQGDNPASGQADPGSSPWRTLTQEEIAKLLE | -0.901 |
| HMIKLSTNENTALRLVMERGLVTESELKGLFDNPVAVMESLISKMIETNTHWIHSERSENGEWVYAWQ | -0.456 |
| HMEFTKSPLDEIAGVGPARKRALLAAFGTAKAVSQAALADLEKTPGVNAATARLVYAHFHEK | -0.143 |
| HMTDLNQIGERIKGLRDALGYSPEKMASILEQKVDDYLAYEEGTKDISLSVLQRIEKEFDIDLSTLLFGT | -0.148 |
| HMLIIMNSDATKEQVDHVTSRVREAGFKDHIMPGAGKVAIGVTGTGDYDQTKLHLEILPGVFKIMRITK | 0.0895 |
| HMGKSETALELIKRGHRLIADDAVEITRIGSTLSGTAPELIRNYLEVRGVGVIDVEKLFGVGAVQDSTQI | 0.0401 |
| HMTNADRYIGQEATVTEKISNELSTGAVRIGGLVWTARTVDNSEAEEGERVTVEAIEGAKLLVKRR | -0.0108 |
| HMAQTSAELIIEYLKRNDGFMELTDKSPADEIYETFGISKKNFKMAVGSLYKNRVIEIGQNGIRLVE | -0.216 |
| HMSDLQTGDINQDGTVDEKDLSLLHSYNLELIKTISNAADLNEDGVINGLDEAYLKRLFLQNSDP | -0.0614 |
| HMDNAILQELYDYYKEDPSLSQSELIISMLTRIQEAVGYVSKDVQEEVARLAGVNRGYVAAIIKNLPHL | -0.747 |
| HMVPQAVQDIKAYLASGALPYIGPATAKKIVAMFGSDALDVIAEHPEQLTAIRGLNEEKANAIHQEFRRQF | -0.0649 |
| HMSKIVPVAYSQFLKDVKNGNVSQVEIRGNNIKGINNNGSSFSTYAPNDLSLIDKLEKSNVEIIVMPLE | -0.125 |

| Sequence | soluble fraction (log2) |
| --- | --- |
| HMRIATVTPIEEDQASDRVVAVYNDIKSTKQIDFIPNFWKVIAVNPDLLEQVWGQLKTLMHPEEVG | -0.659 |
| HMSTKRGEILEFLKDFSARKGYAPSVREIMQAVGLKSTASVHYHLSELHKAGLITVDGTKNRAISLA | -0.149 |
| HMQNREQNILDGKSILDKELKRVGLLNQSAAIMAQEMKFNSQDDLFAALGSGATRIGQIINHLQKQS | -0.00642 |
| HMVDPAFLAWQQKPENTWFGTDRRKTALAIAIAEEIRNDPANSNLVGAAFYARVAEETEETLN | -0.628 |
| HMSGPAEDLLAIEGMDKELAYELAARGIRTRDELADQSLDELEAVPGLDPVRAGQLIMAARAHLFENAGQ | -0.124 |
| HMRPEKLVLKALRGAHGPLSAEEVAGRIEADGGAGLDVARVEHVLGQLERSGTVAALGGGKYLALR | 0.281 |
| HMRISMRDQVYEIIKNRILSREYSLGEPINIVHLSKELGISNTPIREALSQLETERLITINSNQKYHVT | -0.154 |
| HMQVFDSNEIDEVVKKVIENNPQAVADFKKGKSNALQFLAGQVMRETKGRFNPNVVQERIRLLLT | 0.458 |
| HMESKKKTYTVKSGDTLVSILKREGVPQELIFKDYLGLFLELNPQISDINKLRVGQEIVLPVPG | 0.0119 |
| HMIINFDAIKLTTELNKYKRHKAIPNTFFDGTYTILDVRELYNDLTPKAQKIADELIEHYNVDVK | -1.88 |
| HMPHTDATDKQIIALILETLKDGQKHSVSEMTFPGIPREKTAQLLHQMIEEETVRIQNGVLFLPH | -0.109 |
| HMHEHWDGSGFPKHLRGANIPLGARVIAVADTYDSITSSRAYRAGSTHEAAEREMRRVSGTQLDPE | 0.137 |
| HMAAGVESLTEKEFAVASLVGGGASNREIAERLAMSERTVKSHLSSIFRKMDVRDRVQLALAMND | 0.00815 |
| HMVQDDLRELEGISTELLAKLADAGITNRDDLADLAIDELVAITGQSEDDAKALIMKAREHWFAGDA | -0.0273 |
| HMADYYSILGLTKNATDIEIKSAFRKLAKIYHPDKNPDPNARVLFEHILKAYDTLINPHSRRRYDSL | -0.349 |
| HMKQLLHLVIGGELKDVRGIEFEDLSKIDFVGAFPSYKAAYDAWKNAAQRTVDNAEMRYFILHAHR | -1.79 |
| HMIYQEGMQVKYQGKEYVISEIQDYKTYKTIKLDDNEGYLNGFITGSEILSFRNESELDLEI | -0.314 |
| HMKTLNKRQQDIINLAREEGFVTVEHLSEYFKVTQQTIRRDLGYLSENLYLARTYGGAFFQS | -0.872 |
| HMGRKPATTIPLQVRNAVLDLYRTKYYGANFQHYTELLHEHEGIRISTSSVAKILEAEYILSPK | -1.69 |
| HMKNVADEVFEKMLNMIIEGDWKKGEMIPSENELREAFSVSRSTVRQAVQRLSALGIVRSRQGKGTYVEQV | -1.04 |
| HMGKASNEVYEVISSKIRTGEWAPGYKLPSEPTLAEEFGVSRATVREALQELISRGRIKREQGRGTYVLH | 0.161 |
| HMSEEELETSGLVKRSAKGNLYDIFRHRVMVPIIDVRGAIIAFGGRVLDDSKPKYINSPETMVY | 0.0208 |
| HMGQGAASAPLRELGVDPVSEKQMVLKDGRFGPYVTDGETNASLRKGDEVETITDERASELLQMRRDAGPS | -0.195 |
| HMHVYQSLVTDRVVPGGGYRTTEAILSTEAWRNTLLEQAKRELIGVRNKYASLTELAKVWTAIDTVT | -0.586 |
| HMRDLVTYVVQVNGKLRGKLEVSPSTDDNSLKTMALELENVQRALEGLSVKKVIVIPGKMVSIAAG | 0.167 |
| HMEAYSAEAVRFRIKAMIESETVDDVMSDDKIVERLLADGVDIARRTVAKYREAMNIPSSVKRRRKLKGM | -1.53 |
| HMDYYSILGVDRNATGEDIKKAFKKKAMKYHPDRNPDNKESERKFKEAKEAYDTLSNPQKKSMYDQFGT | 0.0734 |
